Test results as given in the nanobody polyreactivity screen of Harvey et al. (2022).

Test: yeast display, Sf9 membrane polyspecificity reagent, FACS + sequencing; frameworks hold sequencing errors
Summary of the method: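 Polyreactivity labels are assigned by the sorting gate from which each nanobody was recovered. The gates were low and high (top ~1%), set on anti-HA fluorescence for expression and streptavidin fluorescence for reagent binding. Before sorting, galactose-induced (36–48 hours) yeast display cells were stained for 1 hour at 4 °C with 10% biotinylated, detergent-solubilized Sf9 membrane reagent.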

Sequence	polyreactivity (PSR sort gate)
QDQLVESGGGLDHAGGSIRLSCAASGFISKYYAMGWYTQAPGKERELVASISRDGSTSYADTVKGRFTNTRDNAKNPVYLQMNSLKPEDTAVYYCNAGYNWYPLFDYWGQGTQVTVSS	high polyreactivity
QDQLVESGGGLDQAGGRLRLSCAASGSIFGVYAMGWYRQAPGKERELVASITWSSGSTNYADSVKGRFTISRDNAKNTVYLQMNSLKPEDTAVYYCNRVYARSQRVVTKFHYDYWGQGTQVTVSS	low polyreactivity
QDQLVESGGGLDQAGGSLRLSCAASGFTFYNYAMGWYRQAPGKERELVAAISWNGGSTYYADSVKGRFTISRDNAKNTVYLQMNSLKPEDTAVYYCNADISQRTRGYYYVWWSRMDYWGQGTQVTVSS	low polyreactivity
QDQLVESGGGLDQAGGSLRLSCAASGRTFLWNAMGWYRQAPGKERELVARINLSGGRTYYADSVKGRFTISRDNAKNTVYLQMNSLKPDDTAVYYCAATVVRYRRDSWGQGTQVTVSS	low polyreactivity
QDQLVESGGGLDQAGGSLRLSCAATGGIIRQNVMGWYRQPPGKERELVAAISRRGVITYYADSVKGRFTISRDNAKNTVYLQMNSLKPDDTAVYYCNYKPTWDYSYWGQGTQLTVSS	high polyreactivity
QDQLVESGGGLDQARGSLRLSCAACGSTFPRYAMGWSRQAPGKERELVAAITASGGSTYYADSVKGRFTISRDNAKNPVYLQMNSLKPEDTAVYYCATPSLYTGYDYWGQGTQVTVSS	low polyreactivity
QDQLVESGGGLFQAGGSLRLICAASGFIFSSYDMGWDRQAPGKERELVAAITTVGSRIYADSVKGRFTISRDNAKNTVDLQMNCLKPEDSAVYVCATVPGGSWLVLWWSTGGDDEYWGHGTQVTVSS	low polyreactivity
QDQLVESGGGLFQAGGSLRLSCAASGFTFVDYTMGWYRQEPGKEREFVAAISSSGGSTYYADSVKGRITISRDYAKNTVYFQMNSLKPEDTAVYYCKADAINKRGGRDYWGQGTQVTVSS	high polyreactivity
QDQLVESGGGLFQAGGSLRLSCSASGSIFQYYTMGWYRQAPGKERELVAAIKSGGRTNYADSVKGRFTISRDNAKNTVYLQMNSLKPEDTAVYYCAKRLSTRASFGEEDSWGQGTQVTVSS	low polyreactivity
QDQLVESGGGLLQAGGSLRLSCAASGLTFSDYAMGWYRQAPGKEREFVAAITRNGGSTRYADSVKGRFTISRDNAKNTVYVQMNSVKPEDTAVFYCHKVSFVYSRSKGFYYTYLKFEYWGQGTQVTVSS	low polyreactivity
QDQLVESGGGLLQAGGSLRLSCAASGSTIGYYAMGWYRQAPGKERELVAAINSGDSTSYADSVKGRFTISRDNAKNTVYLQMNSLKPEDTAVYYCAVRPRRHQYGYWGQGTQVTVSS	low polyreactivity
QDQLVESGGGLVHAGGSLRLSCAASVSTFTRYDMGRYRQAPGKERELVDAISWSGGRTHYADSVKGRFTISRENAKNTVYLQMNSLKPEDTAVYYCNTLYDYWYDYWGQGSQVTVSS	low polyreactivity
QDQLVESGGGLVQAGASLRLSCAASGITFNVYAMGWYRQAPGKEREFVAAISYNGGRTYYADSVKGRFTISRDNAKNTVYLQMNSLKPEDTAVYYCAAQWAWGPYDYWGQGTQVTVSS	high polyreactivity
QDQLVESGGGLVQAGCSLLLSCAASGRIFAKNAMVCYRQAPGKERELVATSSWSGSSTRYADSVKGRFTISRDYAKNSVYLQMNSLKPEDTAVYYCAARPTPRRTPYTATYDYWGQGTQVTVSS	high polyreactivity
QDQLVESGGGLVQAGGCLRLSCAASGSIFIPYAMGSYRQAPGKERELVAAISLGDGNTYYADSVKGRFTISRDNAKYTVYLQMNSLKPEDTAVYYCNAVPRKFGDEYWGQGTQVTVSS	low polyreactivity
QDQLVESGGGLVQAGGGLRLSCAASVRTFSKYTMGWYRQAPGKERELVAAISYSGGSTYYADSVKGRFTISRDNAKNTVYLQMNSLKPEDTAVYYCAARASTYKYYYWGQGTQVTVSS	high polyreactivity
QDQLVESGGGLVQAGGILRLSCAASGSTFFHYAMGWYRQAPGQEREFVAANDSNGGSTYYADSVKGRFSISRDNAKNTVYLQMTCLKPEETAVNYCAADDLAEFEYDYWGQGTQVTVSS	low polyreactivity
QDQLVESGGGLVQAGGILSLSCAASGSTFSYYAMGWYRQAPGTETELVAAISSRGGSTYYADSVKGRFTISRDNAKNPVYLQMNSLNPEDTAVDYCNADHKFRSSVSGDHDYWGQGTQVTVSS	high polyreactivity
QDQLVESGGGLVQAGGRLRLSCAASGFIFYSYVMGRYRQAPGKERELVASIRSRGGSTYYADSVKGRFTISRDNAKNTVYLQMNSLKPEDTAVYYCAADLYLSPSWYKYDYWGQGTQVTVSS	low polyreactivity
QDQLVESGGGLVQAGGSHRLSCAASGFISDKNAMGWYRQAPRKERELVAAISQRGDRTYYADSVKGRFTISRDNAKNTVYLQMNSLKPEDTAVYYCGYLVRYHHLRYWGQGTQVTVSS	high polyreactivity
QDQLVESGGGLVQAGGSHRLSCAASGSTFLGNTMGWYRQAPRKERELVAAISSSGTSTYYADSVKGRFTISRDNAKNTVYLQMNSLKPEDTAVYYCAAVIRVWWGFGDKYDYWGQGTQVTVAS	high polyreactivity
QDQLVESGGGLVQAGGSHRLTCAATGITLDNYVMGWYRQAPRTERELVAAISRTSGRTYYADSVKGRFTISRDNAKNTVYLQMHSLKPEDTGVYYCNARSRGRASGYDYWGHGTQVTVSS	high polyreactivity

Sequence	polyreactivity (PSR sort gate)
QDQLVESGGGLVQAGGSIRLSCAASGGIFESYAMGWYRQAPGKEREMVASISSGGSTYYADSVKGRFTISRDNAKNTVYLQMNSLKPEDTAVYYCNKDYRSVYKGRGFDYWGQGTQVTVSS	low polyreactivity
QDQLVESGGGLVQAGGSLGLSCAASGSIFGFYDMGWSRQAPGKERELVAAITSGDSTHYADSVKGRFTISRDNAQNTVYVQMNSLKPVDTAVYYCAASAPYRYYRSAYYSWGQGTQVTVSS	low polyreactivity
QDQLVESGGGLVQAGGSLRLICAASARTFSHYPLGWYRQAAGKERELVATITRNGRITYYADSVKGRFTISRDNAKYTVYFQMNSLKPEDTAVYYFNKRWGGPIQFDYWGPGTQVTVSS	low polyreactivity
QDQLVESGGGLVQAGGSLRLICSASGIILGSNAMGWYRQAPGKERELVAAITSSGSTYYADSVKGRFTISRDNAKNTVYIQMNSLKPEDTAVYYCATGWLRRAVRFNYWGQGTQVTLSS	high polyreactivity
QDQLVESGGGLVQAGGSLRLRCAASGSIFGGYAMGWYRQAPGKERELVDAISSGGTTNYADSVMGRFTISRDNAKNTVYLQMNSLKQEDRAVYYCAREYGTTYQSVQVKFIQLDYWGQGTLVTVSS	low polyreactivity
QDQLVESGGGLVQAGGSLRLSCAASGFIFFGYAMGWYRQAPGKERELVAAITSGGSTYYADSVKGRFTISRDNAKNTVYLQMNSLKPEDTAVYYCAAVLWYGSKRYGYWGQGTQVTVSS	high polyreactivity
QDQLVESGGGLVQAGGSLRLSCAASGFIFGRYTMGWYRQAPGQDRELVAAISSRGGSTYDADSGKGRFTISRDNAKNTVYLQMNSLKPEDTAVYYCNALRRPSTEGRDYWGQGTQVTVSS	high polyreactivity
QDQLVESGGGLVQAGGSLRLSCAASGFIFKWNAMGWYRQAPGKERELVAGITRGGSTYADSVKGRFTISRDNAKNTVYLQMNSLKPEDTAVDYCAAGDYDEYDYWGQGTQVTVSS	high polyreactivity
QDQLVESGGGLVQAGGSLRLSCAASGFTFGSYAMGWYRQAHGKERELVAAITASGGSTYYADSVKGRFTISRDNAKNTVYLQMNSLKPEDTAFYYCATRRYDGVAAFRMYYWGQGTQVTVSS	high polyreactivity
QDQLVESGGGLVQAGGSLRLSCAASGFTFRDYTRGWYRQAPGKERELVAAISLSGGSTYYADSVKGRFTISRDNAKNTVYFQMNSLKPEDTAVYYCAAGYLLWRTWDYGAGHNFWGQGTQVTVSS	high polyreactivity
QDQLVESGGGLVQAGGSLRLSCAASGFTFRHYVMGGSRQAPGKERELVAAIDVRGGSTYYADSVKGRFTISRDNAKNTVYLQMNSLKPEDTAVYYCAKRLIPRLPIMQKMDYWGQGTQVTVSS	low polyreactivity
QDQLVESGGGLVQAGGSLRLSCAASGFTFSAYAMGWYRQAPGKERELVAAISTRGGSTRYADSVKGRFTISRDNAKNTVYLQMNSLKPEDTAVYYCAVEVYSYLYYETYPTEYEYWGQGTQVTVSS	high polyreactivity
QDQLVESGGGLVQAGGSLRLSCAASGFTFYPYTRGWYRQAPGKERELVAAISKSGGSTYYADSVKGRFTISRDNAKNTVYLQMNSLKPEDSAVYYCAAQRYSYYTPDDDYWGQGTQVTVSS	high polyreactivity
QDQLVESGGGLVQAGGSLRLSCAASGGIFFYYVMGWYRKAPGKEREFVAAITSGGSTYYADSVKGRFTISGDNAKNTVYLQMNRLKPEDTAVYYCNARDVVDYSVWSRYAYDYWGQGTQVTVSS	low polyreactivity
QDQLVESGGGLVQAGGSLRLSCAASGGTFSLYAKGWYRQAPGKEREFVAAISWRGTSTYYADSVKGRFTISRDNAKNTVYLQMNSLKPEDTAVYYCAARAWHEYGSWVQGTQVTVSS	high polyreactivity
QDQLVESGGGLVQAGGSLRLSCAASGHIISTYAMGWYRPAPGKERQLVASISENGGTTYYADSVKGRFTISRDIAKNTVYLQMYSLKPEDTAVYYCNADAYVYFDDGDYWGQGTQVTVSS	low polyreactivity
QDQLVESGGGLVQAGGSLRLSCAASGIIFYGYAMGWYRQAPGKERQLVAGISSGGSTYYADSVKGRFTISRDNAKNTVYLQMNSLNPEDTAVYYCNAEGGYSYESTDHYRYDYWGLGTQVTVSS	low polyreactivity
QDQLVESGGGLVQAGGSLRLSCAASGIIFYVYAMGWYRLAPGKERELVAAISRSGGRTYYADSVKGRFTISRDNAKNTVYFQMNSLKPEDTAVYYCAADAYRTPTHYYWGQGTQVTVSS	high polyreactivity
QDQLVESGGGLVQAGGSLRLSCAASGITFDRYALGWYRQAPGKEREFVAAISWRGGSTYYADSVKGRFTISRDNAKNTVYLQMNSLKPEDTAVYYCAVGYYDHDYWYEYWGQGSQVTVSS	high polyreactivity
QDQLVESGGGLVQAGGSLRLSCAASGITFQWYAMGWYRQAPGKEREFVAAITYRGGSTYYADSVKGRFTISRDNAKNTVYLQMNSLKPEDTAVYYCARDDSRLLHPSWLDYWGKGTQVTVSS	high polyreactivity
QDQLVESGGGLVQAGGSLRLSCAASGITFSSNAMGGYRQAPGKERELVAAISRNGDRTYYADSVKGRFTISRDNAKNTVYLQMNSLKPEVTAVYYCATAYPGSRRDYWGQGTQVTVSS	high polyreactivity
